Experimental data from paper PMC2200010.

How the values were obtained:
[1] = target: Escherichia coli heat labile toxin B subunit, pentameric, recombinant (Escherichia coli) (UniProt P32890); assay: ELISA
[2] = target: cholera toxin B subunit, pentameric, recombinant (Vibrio cholerae) (UniProt P01556); assay: ELISA
UniProt P01556, sequence (P01556 22-124): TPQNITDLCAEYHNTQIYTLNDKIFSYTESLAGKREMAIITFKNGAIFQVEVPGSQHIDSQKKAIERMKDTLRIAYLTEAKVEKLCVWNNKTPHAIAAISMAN

UniProt P32890, sequence (P32890 22-124): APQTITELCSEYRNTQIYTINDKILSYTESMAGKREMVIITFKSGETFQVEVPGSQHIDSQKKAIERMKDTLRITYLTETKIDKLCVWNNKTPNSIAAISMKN

## Escherichia coli heat labile toxin A subunit, recombinant wild type (from UniProt P06717 19-258) (natural protein)
[1]
  stoichiometry N (A subunit per pentameric B subunit): 1

## cholera toxin A subunit, recombinant wild type (natural protein)
[2]
  stoichiometry N (A subunit per pentameric B subunit): 1
